3 molecules from PMC9503769, “Development and Evaluation of a Peptide Heterodimeric Tracer Targeting CXCR4 and Integrin αvβ3 for Pancreatic Cancer Imaging” (Pharmaceutics, 2022) can be followed below.

Data set [1] is classed as physicochemical. As for the experimental part:
^68Ga-yG5-RGD, ^68Ga-yG5, or ^68Ga-RGD (740 kBq each) were separately added to a mixture of 1.0 mL n-octanol and 1.0 mL PBS, and then the mixtures were thoroughly vortexed for 5 min. Each sample was then centrifuged at 8000 rpm for 4 min. Each sample (100 μL) in organic phase and aqueous phase was collected separately in tubes, 5 tubes for each phase. Radioactive counts per tube of samples were measured by gamma counter, and logP values were calculated by the following formula: logP = log10 (counts in n-octanol/counts in PBS).

A short description of a further data set: in vivo. To be noted: female, BALB/c nude, mouse, iv, total radioactivity. The arrangement: species or system BALB/c nude mice. As for the experimental part:
All animal studies were conducted in accordance with the guidelines of the Institutional Animal Care and Use Committee of Tongji Medical College of Huazhong University of Science and Technology (2021-S2875; 1 February 2021). Female BALB/c nude mice (5–6 weeks old) were purchased from Beijing HFK Bioscience Co., Ltd. (Beijing, China) and were raised in a specific pathogen-free barrier system. For subcutaneous tumor xenograft model, 1 × 10^7 cells of BxPC3 or MX-1 in 100 μL PBS were injected into the right flanks of nude mice. Animal models were used for follow-up experiments when tumors reached 8~10 mm in diameter. The group setting was kept consistent with PET/CT scan. Each group of mice (n = 4) was injected via tail vein with probes (5.55~7.4 MBq, 150 μL) or co-injected with probes and blockers (10 mg/kg). Mice were euthanized by cervical dislocation under anesthesia 2 h post-injection. Subsequently, tissues of interest were collected, washed, weighed, and counted by a gamma counter. After decay correction, uptake of tissues was expressed as the percentage of injected dose per gram of tissue (%ID/g).

The nature of data set [2]: Stability in PBS (radio-HPLC). The note with it: 1.85 MBq in 300 μL, 2 h, 37 °C. It counts as physicochemical. As for the experimental part:
(§1) The ^68Ga-yG5-RGD (1.85 MBq, 5 μL) or ^68Ga-yG5 (1.85 MBq, 5 μL) was separately added to 300 μL of PBS or normal human fresh serum, incubated for 2 h at 37 °C. After incubation, the PBS sample was subjected to HPLC for radiochemical purity under the conditions described above. An equal volume of anhydrous acetonitrile was added to serum sample, mixed, and then centrifuged at 13,000 g for 10 min to fully precipitate protein. Following this, the supernatant was collected and authenticated by HPLC.

Data set [3] is classed as in vitro ADME, human. As for the experimental part:
as §1

In data set [4] the test system is BxPC3 cells. The data set can be described thus: Cell uptake in BxPC3 cells. The note with it: 74 kBq/well, 30 min, 1 h and 2 h, all p < 0.001, n = 3. The class given is cell-based, human. As for the experimental part: (§2) BxPC3 cells in the logarithmic growth phase were harvested, counted, and seeded onto 24-well plate with 2 × 10^5 cells/well and cultured overnight. The original culture medium was discarded and fresh DMEM (serum and antibiotic-free) was then added to continue culturing for 0.5 h. Subsequently, each well was separately added ^68Ga-yG5-RGD, ^68Ga-yG5, or ^68Ga-RGD (74 kBq/well, 50 μL) and incubated for 30 min, 1 h, and 2 h (three replicate wells/each time point). At the end of incubation, the supernatant and the cell lysate were separately collected and radioactivity was measured by gamma counter. The cell uptake was expressed as the percentage of total applied radioactivity. Cell uptake study experiment was also performed using MX-1 as a control group for ^68Ga-yG5-RGD. The detailed experimental procedure was the same as above.

The test system of another data set is MX-1 cells. Description: Cell uptake in MX-1 cells (negative control). The class given is cell-based, human. The note with it: all time points, all p < 0.001. As for the experimental part: as §2
Data set [5] concerns BxPC3 cells. The data set can be described thus: Cell blocking experiment in BxPC3 cells. It counts as cell-based, human. The note with it: co-incubated with 1000-fold molar excess of unlabeled RGD, AMD3100 or AMD3100 + RGD, all p < 0.001. As for the experimental part:
BxPC3 was used for cell blocking experiments. One group was taken as a control and added only ^68Ga-yG5-RGD (74 kBq/well, 50 μL, 1 pmol). Other groups were incubated with the blocking agents (AMD3100, RGD, AMD3100 + RGD unlabeled, 1000 pmol/10 μL, and ^68Ga-yG5-RGD (74 kBq/well, 50 μL). The rest of the procedures were carried out as described above.

Molecules are shown by their SMILES. Where a SMILES comes first, the peptide text is derived from it. [ ]: non-standard residue; d: D form. The star is where a group is joined. X1 = O=C(O)CN1CCN(CC(=O)O)CC(Cc2ccc(NC(=S)*)cc2)N(CC(=O)O)CC1; 2Nal = N[C@@H](Cc1ccc2ccccc2c1)C(=O)O; dNMeK = CN[C@H](CCCCN)C(=O)O

Usually log P stands for a log measure of how a compound divides between an organic and an aqueous phase. A high value points to a more lipophilic compound. For the molecule `N=C(N)NCCC[C@@H]1NC(=O)[C@H](CCCCNC(=S)Nc2ccc(CC3CN(CC(=O)O)CCN(CC(=O)O)CCN3CC(=O)O)cc2)NC(=O)[C@@H](Cc2ccc(O)cc2)NC(=O)[C@H](CC(=O)O)NC(=O)CNC1=O` (some centres unmarked) [^68Ga-RGD, metal not drawn, reference compound], the “log P” value in data set [1] is recorded as −3.22 ± 0.02. Also, the tissue to tissue ratio at 2 h in the data set “in vivo” (tumor/blood uptake ratio) was 10.8 ± 2.04; in “in vivo” (tumor/kidney uptake ratio), 0.77 ± 0.06; in the data set “in vivo” (tumor/liver uptake ratio), 0.96 ± 0.15; in “in vivo” (tumor/muscle uptake ratio), 8.61 ± 0.61.

With `CN1C(=O)[C@@H](Cc2ccc(O)cc2)NC(=O)CNC(=O)[C@H](Cc2ccc3ccccc3c2)NC(=O)[C@H](CCCNC(=N)N)NC(=O)[C@H]1CCCCNC(=S)Nc1ccc(CC2CN(CC(=O)O)CCN(CC(=O)O)CCN2CC(=O)O)cc1` (some centres unmarked) [^68Ga-yG5, metal not drawn] (cyclo([2Nal]G[dY][dNMeK](X1)R)), in data set [1], the “log P” value is listed as −0.35 ± 0.09. The tissue to tissue ratio at 2 h in the data set “in vivo” (tumor/blood uptake ratio) came out at 2.01 ± 0.43; in “in vivo” (tumor/kidney uptake ratio), 0.34 ± 0.06; in the data set “in vivo” (tumor/liver uptake ratio), 0.13 ± 0.04; in “in vivo” (tumor/muscle uptake ratio), 3.86 ± 1.29.

Take `CN1C(=O)[C@@H](Cc2ccc(O)cc2)NC(=O)CNC(=O)[C@H](Cc2ccc3ccccc3c2)NC(=O)[C@H](CCCNC(=N)N)NC(=O)[C@H]1CCCCNC(=O)C(CCn1nnc2c1CCC1C(CC2)C1COC(=O)NCCOCCOCCOCCOCCC(=O)NCCCC[C@@H]1NC(=O)[C@@H](Cc2ccc(O)cc2)NC(=O)[C@H](CC(=O)O)NC(=O)CNC(=O)[C@H](CCCNC(=N)N)NC1=O)N1CCN(CC(=O)O)CCN(CC(=O)O)CC1` (some centres unmarked) [^68Ga-yG5-RGD, metal not drawn]: the “proportion of intact tracer” value in data set [2] was “greater than 99%”. Also, in data set [3], the “metabolic-free Gallium-68 observed” value is recorded as “less than 1%”. Besides, the “log P” value in data set [1] was −2.47 ± 0.04. For the same molecule, the “cellular uptake in BxPC3 cells” value in the data set on BxPC3 cells [4] was “significantly higher than that of ^68Ga-RGD and ^68Ga-yG5”. Also, the “cellular uptake in MX-1 cells” value in the data set on MX-1 cells is recorded as “significantly lower than that of BxPC3 cells”. Also, the “cellular uptake in BxPC3 cells with blockers” value in the data set on BxPC3 cells [5] is recorded as “significantly decreased”. Moreover, the tissue to tissue ratio at 2 h in the data set “in vivo” (tumor/blood uptake ratio) was 14.5 ± 0.8; in “in vivo” (tumor/kidney uptake ratio) it was 0.9 ± 0.29; in “in vivo” (tumor/liver uptake ratio) it was 0.46 ± 0.1; in “in vivo” (tumor/muscle uptake ratio), 13.6 ± 0.81.
